Measured values reported in the RNAGym collection of RNA variant scans (doi:10.1073/pnas.2313332121).

B1: TPR t1 (parent)
chain: GACCAAUCUGCCCUCAGAGCUCGAGAACAUCUUCGGAUGCAGAGGAGGCAGGCUUCGGUGGCGCGAUAGCGCCAACGUCCUCAACCUCCAAUGCAUCCCACCACAUGAUGAUGCCUGAAGAGCCUUGGUUUUUUG

Variants of: B1
Assay: polymerase ribozyme fitness, log enrichment relative to wild type (log ratio); higher = more active; in vitro selection for triplet polymerase activity
In short: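 Mutant libraries were PCR-built and transcribed for each subunit of a heterodimeric triplet polymerase ribozyme and selected for one round in triplicate at −7 °C, frozen, before gel excision of extended constructs and streptavidin-bead capture. Input and output libraries were Illumina-sequenced, keeping genotypes with ≥10 input reads and ≥1 read per output. Fitness is a logarithmic ratio of genotype to wild-type enrichment, in base 2, using inverse-variance-weighted replicate averages.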

Variant	polymerase ribozyme fitness (log ratio)
GACCAAUCUGGGCUCAGAGCUCGAGAACAUCUUCGGAUGCAGAGGGGGCAGGCUUCGGUGGCGCGAUAGCUCCAACGUCCUCAACCUCCAAUGCAUCCCACCACAUGAUGAUGCCUGAAGAGCCUUGGUUUUUUG [C11G C12G A46G G71U]	-0.917
GACCAAUCUGGGCUCAGAGCUCGAGAACAUCUUCGGAUGCAGAGGAGGCAGGCUUCGGUGGCGCGAUAGCGCUAACGUCCUCAACCUCCAAUGCAUCCCACCACAUGAUGAUGCCUGAAGAGGCAUGGUUUUUUG [C11G C12G C73U C123G U125A]	-2.92
GACCAAUCUGGGCUCAGAGCUCGAGAACAUCUUCGGAUGCAGAGGAGGCAGGCUUCGGUGGCGCGAUAGCGCCAACGUGCUCAACCUCCAAUGUAUCCCACCACAUGAUGAUGCCUAAAGAGCCUUGGUUAUUUG [C11G C12G C79G C94U G117A U131A]	-2.71
GACCAAUCUGGUCUCAGAGCUCGAGAACAUCUUCGGAUGCAGAGGAGGCAGGCUUCGGUGGCGCGAUAGCGCCAACGUCCUCAACCUCCAAUGCAUCCCACCACAUGAUGAUACCUGUAGAGCCUUGGUUUUUUG [C11G C12U G113A A118U]	-3.33
GACCAAUCUGGCAUCAGAGCUCGAGAACAUCUUCGGAUGCAGAGGAGGCAGGCUUCGGUGGCGCGAUAGCGCCAACGUCCUGAGCCUCCAAUGCAUCCCACCACAUGAUGAUGCCUGAAGAGCCUUGGUUUUUUG [C11G C13A C82G A84G]	-1.63
GACCAAUCUGGCAUCAGAGCUCGAGAACAUCUUCGGAUGCAGAGGAGGCAGGCUUCGGUGGCGCGAUAGCGCCAACGUCCUCAACCUGCAAUGCAUCCCACCACAUGAUGAUGCCUGAAGAGCCUUGGUUUUUUG [C11G C13A C88G]	-2.71
GACCAAUCUGGCAUCAGAGCUCGAGAACAUCUUCGGAUGCAGAGGAGGCAGGCUUCGGUGGCGCGAUAGCGCCAACGUCCUCAACCUCCAAUGCAUCCCACCACAUGAUGAUGCCUCAAGAGCCUUGGUUUAUGG [C11G C13A G117C U132A U134G]	-2.05
GACCAAUCUGGCGUCAGUGCUCGAGAACAUCUUCGGAUGCAGAGGAGGGAGGCUUCGGUGGCGCGAUAGCGCCAACGUCCUCAACCUCCAAUGCAUCCCACCACAUGAUGAUGCCUGAAGAGCCUUGGUUUUUUG [C11G C13G A18U C49G]	-3.53
GACCAAUCUGGCGUCAGAGCUCGAGAACAUCUUCGGAUGCAGAGGAGGCAGGCUUCGGUGGCGCGAUAGCGCCAACGUCCUCAACCUCCAAUGCAUCCCACCACAUGAUGCUGCCUGAAGGGCCUUGGUUUUUUG [C11G C13G A111C A121G]	0.62
GACCAAUCUGGCUUCAGAGCUCGAGAACAUCUUCGGAUGCAGAGGAGGCAGGCUUCGGUGGCGCGAUAGCGCCAACGUCCUCAACCUCCAAUGCAUCCCAGCACAUGAUGAUGCCUGAAGAGCCUUGGUUUUUUG [C11G C13U C101G]	-1.63
GACCAAUCUGGCUUCAGAGCUCGAGAACAUCUUCGGAUGCAGAGGAGGCAGGCUUCGGUGGCGCGAUAGCGCCAACGUCCUCAACCUCCAAUGCAUCCCACCAAAUGAUGUUGCCUGAAGAGCCUUGGUUUUUUG [C11G C13U C104A A111U]	-3.99
GACCAAUCUGGCUUCAGAGCUCGAGAACAUCCUCGGAUGCAGAGGAGGCAGGCUUCGGUGGCGCAAUAGCGCCAACGUCCUCAACCUCCAAUGCAUCCCACCACAUGAUGAUCCCUGAAUAGCCUUGGUUUUUUG [C11G C13U U32C G65A G113C G120U]	-6.75
GACCAAUCUGGCCUAAGAGCUCGAGAACAUCUUCGGAUGCAGAGGAGGCAGGCUUCGGUGUCGCGAUAGCGCCAACGUCCUCAACCUCCAAUGCAUCCCACCACAUGAUGAUGCCUGAAGAGCCGUGGUUUUUUG [C11G C15A G61U U125G]	-0.123
GACCAAUCUGGCCUGAGAGCUCGAGAACAUCUUCGGAUGCAGAGGACGCAGGCUUCGGUGGCGCGAUAGCGCCAACGUCCUCAACCUCCAAUGCAUCCCACCACAUGAUGAUGCCCGAAGAGCCUUGGUUUUUUG [C11G C15G G47C U116C]	-2.52
GACCAAUCUGGCCUGAGAGCUCGAGAACAUCUUCGGAUGCAGAGGAGGCAGGCUUCGGUGGCCCGAUUGCGCCAACGUCUUCAACCUCCAAUGCAUCCCACCACAUGAUGAUGCGUGAAGAGCCUUCGUUUUUUC [C11G C15G G63C A68U C80U C115G G127C G135C]	-5.08
GACCAAUCUGGCCUUAGAGCUCGACAACAUCUUCGGAUGCAGAGGAGGCAGGCUUCGGUGGCGCGAUAGCGCCAACGUCCUCAACCUCCAAUGCAUCCCACCACAUGAUGCUGCCUGGAGAGCCUUGGUUUUUUG [C11G C15U G25C A111C A118G]	-6.56
GACCAAUCUGGCCUCAGAGGUCGAGAACAUCUUCGGAUGCAGAGGAGGCAGGCUUCGGUGGCGCGAUAGCGCUAACGUCCUCAACCUCCAAUGCAUCCCACCACAAAAUGAUGCCUGAAGAGCCUUGGUUUUUUG [C11G C20G C73U U106A G107A]	-5.37
GACCAAUCUGGCCUCAGAGUUCGAGCGCAUCUUCGGAUGCAGAUGAGGCAGGCUUCGGUGGCGCGAUAGCGCCAACGUCCUCAACCUCCAAUGCAUCCCACCACAUGAUGAUGUCUGAAGAGCCUUGGUUUUUUG [C11G C20U A26C A27G G44U C114U]	-6.01
GACCAAUCUGGCCUCAGAGCUGGAGAACAUCUUCGGAUGCGGAGGAGGCAGGCUUCGGUGGCGCGAUAGCGCCAACGUCCUCAACCUCCAAUGCAUCCCACCACAUGAUGAUGCCUGAAGAGCCUUGCUUUUUUG [C11G C22G A41G G128C]	-5.82
GACCAAUCUGGCCUCAGAGCUGGAGAACAUCUUCGGAUGCAGAGGAGGCAGGGUUCGGUGGCGCGAUAGUGCCAACGUCCUUAACCUCCAAUGCAUCCCACCACAUGAUGAUGCCUGAAGAGCCUUGGUUUUUUG [C11G C22G C53G C70U C82U]	-4.01
GACCAAUCUGGCCUCAGAGCUUGAGAACAUCUUCGGAUGCAGAGGAGGCAGGCUUCGGUGGCGCGAUAGCGCCAACGUCCUCAACCUCCAAUGCAUCCCACCACAUGAUGAUGCCUGAAGAGCCUUGGUUUUUUG [C11G C22U]	-2.75

Variant	polymerase ribozyme fitness (log ratio)
GACCAAUCUGGCCUCAGAGCUCGAGAAAAUCUUCGGAUGCAGAGGAGGCAGGCUUCGGUGGCGCGAUAGCGCCAACGUCCUCAACCUCCAAUGCAUCCCACCACAUGAUGAUGCCUGAAGAGCCUUGGUUUUUUG [C11G C28A]	-2.78
GACCAAUCUGGCCUCAGAGCUCGAGAAAAUCUUCGGAUGCAGAGGAGGCAGGCUUUGGUGGCGCGAUAGCGCCAACGUCCUCAACCUCCAAUGCAUCCCACCACAUGAUGAUGCCUGAAGAGCGUUGGUUUUUUG [C11G C28A C56U C124G]	-3.7
GACCAAUCUGGCCUCAGAGCUCGAGAAGAUCUUCGGAUGCAGAGGAGGCAGGCUUCGUUGGCGCGAUAGCGCCAACGUCCUCAACCUCCAAUGCAUCCCACCACAUGAUGAUGCCUGAAGAGCCUUGGUUUUUUG [C11G C28G G58U]	-2.76
GACCAAUCUGGCCUCAGAGCUCGAGAAGAUCUUCGGAUGCAGAGGAGGCAGGCUUCGGUAGCGCGAUCGCGCCAACGUCCACAACCUCCAAUGCAUCCCACCACACGAUGAUGCCUGAAGAGCCUUCGUUUUUUG [C11G C28G G60A A68C U81A U106C G127C]	-6.42
GACCAAUCUGGCCUCAGAGCUCGAGAACAUGUUCGGAUGCAGAGGAGGCAGGCUUCGGUGGCGCGAUAGCGCCAACGUCCUCAACCUCCAAUGCAUCCCACCACAUGAUGAUGCCUGAAGAGCCUUGGUUUUUUG [C11G C31G]	-4.32
GACCAAUCUGGCCUCAGAGCUCGAGAACAUCUUUGGAUGCAGAGGAGGAAGGCUUCGGUGACGCGAUAGCGCCAACGUCCUCAACCUCCAAUGCAUCCCACCACAUGAUGAUGCCUGAAGAGUCUUGGUUUUUUG [C11G C34U C49A G61A C123U]	-2.15
GACCAAUCUGGCCUCAGAGCUCGAGAACAUCUUCGGAUGAAGAGGAGUCAGGCUUCGGUGGCGCGAUAGUGCCAACGUCCUCAACCUCCAAUGCAUCCCACCACAUGAUGAUGCCUGAAGAGCCUUGGUUUUUUG [C11G C40A G48U C70U]	-1.6
GACCAAUCUGGCCUCAGAGCUCGAGAACAUCUUCGGAUGGAGAGGAGGCAGGCUUCGGUGGCGCGAUAGGGCCAACGUCCUCAACCUCUAAUGCAUCCCACCACAUGAUGAUGCCUGAAGAGCCUUGGUUUUUUG [C11G C40G C70G C89U]	-5.83
GACCAAUCUGGCCUCAGAGCUCGAGAACAUCUUCGGAUGGAUAGGAGGCAGGCUUCGGUGGCGCGAUAGCGCGAACGUCCUCAACCACCAAUGCAUCCCACCACAUGAUGAUGCCUGAAGAGCCUUGGUUUUUUG [C11G C40G G42U C73G U87A]	-4.66
GACCAAUCUGGCCUCAGAGCUCGAGAACAUCUUCGGAUGUAGAGGAGGCAGGUUUCGGUGGCGCGAUAGCGCCAACGUCCUCAACCACCUAUGCAUCCCACCACAUGAUGAAGCCUGAAGAGCCUUCGUUUUUUG [C11G C40U C53U U87A A90U U112A G127C]	-2.43
GACCAAUCUGGCCUCAGAGCUCGAGAACAUCUUCGGAUGUAGAGGAGGCAGGCUUCGGUGGCACGAUAGCGCCAACGUCCUCAACCUCCAAUGCAUCCCACCACAUGAUGAUGCCUGAAGAGCCUUGGUUUUUUG [C11G C40U G63A]	-1.18
GACCAAUCUGGCCUCAGAGCUCGAGAACAUCUUCGGAUGCAGAGGAGGAAGGCUUCGGUGGCGCGAUAGCGCCGUCUUCCUCAACCUCCAAUGCAUCCCACCACAUGAUGAUGCCUGAAGAGCCUUGGUUUUUUG [C11G C49A A74G A75U G77U]	-0.693
GACCAAUCUGGCCUCAGAGCUCGAGAACAUCUUCGGAUGCAGAGGAGGAAGGCUUCGGUGACGCGAUAGCGCCAACGUCCUCAACCUCCAAUGCAUCCCACCACAUGAUGAUGCCUGAAUAGCCUUGGUUUUUUG [C11G C49A G61A G120U]	2.28
GACCAAUCUGGCCUCAGAGCUCGAGAACAUCUUCGGAUGCAGAGGAGGUAGGCUUCGGUGGCGCGAUAGCGCCAACGUCCUCAACCUCCAAUGCAUCCCACCACAUGAUGAUGCCUGAACAGCCUUGGUUUUUUG [C11G C49U G120C]	1.52
GACCAAUCUGGCCUCAGAGCUCGAGAACAUCUUCGGAUGCAGAGGAGGCAGGGUUCGGUGGCGCGAUAGCGCCAACGUCCUCAACCUCCAAUGCAUCCCACCACAUGAUGAUGUCUGAAGAGCCUUCGUUUUUUG [C11G C53G C114U G127C]	-1.98
GACCAAUCUGGCCUCAGAGCUCGAGAACAUCUUCGGAUGCAGAGGAGGCAGGCUUGGGUGGCGCGAUAGCGCCAACGUCCUCAACCUCCAAUGCAUCCCACCACAUGAUGAUGCCUGAAGAGCCUUGGUUUUUUG [C11G C56G]	0.087
GACCAAUCUGGCCUCAGAGCUCGAGAACAUCUUCGGAUGCAGAGGAGGCAGGCUUUGGUGGCGCGAUAGCGCCUACGUCCUCAGCCUCCAAUGCAUCCCACCACAUGAUGAUGCCUGAAGAGCCUUGGUUUUUUU [C11G C56U A74U A84G G135U]	-1.8
GACCAAUCUGGCCUCAGAGCUCGAGAACAUCUUCGGAUGCAGAGGAGGCAGGCUUUGGUGGCGCGAUAGCGCCAAGGUCCUCAACCUCCAAUGCAUCCCACCACAAGAUGAUGCCUGAUGAGCCUUGGUUUUUUG [C11G C56U C76G U106A A119U]	-1.85
GACCAAUCUGGCCUCAGAGCUCGAGAACAUCUUCGGAUGCAGAGGAGGCAGGCUUCGGUGGAGCGAUAGCGCCAACGUCCUCAACCUCCAAUGCAUCCCACCACAUGAUGAUGCCUGAAGAGCCUUGGUUUUUUG [C11G C62A]	-0.516
GACCAAUCUGGCCUCAGAGCUCGAGAACAUCUUCGGAUGCAGAGGAGGCAGGCUUCGGUGGUGCGAUAGCGCCAACGUCCUCAACCUCCAAUGCAUCCCAGCACAUGAUGAUGCCUGAAGAGCCUUGGUUGUUUG [C11G C62U C101G U131G]	-3.31
GACCAAUCUGGCCUCAGAGCUCGAGAACAUCUUCGGAUGCAGAGGAGGCAGGCUUCGGUGGCGUGAUAGCGCCAACGUCCUCAACCUCCAAUGCAUCCCACCACAUGAUGAUGCUUGAAGAGCCUUGGUAUUUUG [C11G C64U C115U U130A]	-1.38
